Results on five molecules are retold here after patent US20140087995A1 (published 2014).

Numbered stars: 1 amine (or outer) side, 2 acyl side, 3 side chain; on linkers, the order of the positions; unused ones are H or OH. Bridge positions count the residues as written; N and C are the ends. Side chains are listed from the residue outwards. Ends that are not written are not given here. * marks the point of attachment. C20 diacid = O=C(O)CCCCCCCCCCCCCCCCCCC(=O)*; γGlu = O=C(O)[C@H](CCC(=O)[*:2])N[*:1]

For orientation: IC50 means the concentration at which inhibition is half-maximal.

To fix the notation:
B1: N^ε1-[(4S)-4-carboxy-4-(19-carboxynonadecanoylamino)butanoyl]-[Arg17,Pro21,Pro27,Glu35]-h-amylin (peptide)
peptide: K([γGlu-C20 diacid])CNTATCATQRLANFLRHSSPNFGAIPSSTNVGSETY-NH2
modifications: disulfide 2-7; N-terminus assumed
SMILES: CC[C@H](C)[C@H](NC(=O)[C@H](C)NC(=O)CNC(=O)[C@H](Cc1ccccc1)NC(=O)[C@H](CC(N)=O)NC(=O)[C@@H]1CCCN1C(=O)[C@H](CO)NC(=O)[C@H](CO)NC(=O)[C@H](Cc1c[nH]cn1)NC(=O)[C@H](CCCNC(=N)N)NC(=O)[C@H](CC(C)C)NC(=O)[C@H](Cc1ccccc1)NC(=O)[C@H](CC(N)=O)NC(=O)[C@H](C)NC(=O)[C@H](CC(C)C)NC(=O)[C@H](CCCNC(=N)N)NC(=O)[C@H](CCC(N)=O)NC(=O)[C@@H](NC(=O)[C@H](C)NC(=O)[C@@H]1CSSC[C@H](NC(=O)[C@@H](N)CCCCNC(=O)CC[C@H](NC(=O)CCCCCCCCCCCCCCCCCCC(=O)O)C(=O)O)C(=O)N[C@@H](CC(N)=O)C(=O)N[C@@H]([C@@H](C)O)C(=O)N[C@@H](C)C(=O)N[C@@H]([C@@H](C)O)C(=O)N1)[C@@H](C)O)C(=O)N1CCC[C@H]1C(=O)N[C@@H](CO)C(=O)N[C@@H](CO)C(=O)N[C@H](C(=O)N[C@@H](CC(N)=O)C(=O)N[C@H](C(=O)NCC(=O)N[C@@H](CO)C(=O)N[C@@H](CCC(=O)O)C(=O)N[C@H](C(=O)N[C@@H](Cc1ccc(O)cc1)C(N)=O)[C@@H](C)O)C(C)C)[C@@H](C)O
notes: also called compound 27
B2: N^ε1-[(4S)-4-carboxy-4-(19-carboxynonadecanoylamino)butanoyl]-[Arg17,Pro21,Pro27,Lys35]-h-amylin (peptide)
peptide: K([γGlu-C20 diacid])CNTATCATQRLANFLRHSSPNFGAIPSSTNVGSKTY-NH2
modifications: disulfide 2-7; N-terminus assumed
SMILES: CC[C@H](C)[C@H](NC(=O)[C@H](C)NC(=O)CNC(=O)[C@H](Cc1ccccc1)NC(=O)[C@H](CC(N)=O)NC(=O)[C@@H]1CCCN1C(=O)[C@H](CO)NC(=O)[C@H](CO)NC(=O)[C@H](Cc1c[nH]cn1)NC(=O)[C@H](CCCNC(=N)N)NC(=O)[C@H](CC(C)C)NC(=O)[C@H](Cc1ccccc1)NC(=O)[C@H](CC(N)=O)NC(=O)[C@H](C)NC(=O)[C@H](CC(C)C)NC(=O)[C@H](CCCNC(=N)N)NC(=O)[C@H](CCC(N)=O)NC(=O)[C@@H](NC(=O)[C@H](C)NC(=O)[C@@H]1CSSC[C@H](NC(=O)[C@@H](N)CCCCNC(=O)CC[C@H](NC(=O)CCCCCCCCCCCCCCCCCCC(=O)O)C(=O)O)C(=O)N[C@@H](CC(N)=O)C(=O)N[C@@H]([C@@H](C)O)C(=O)N[C@@H](C)C(=O)N[C@@H]([C@@H](C)O)C(=O)N1)[C@@H](C)O)C(=O)N1CCC[C@H]1C(=O)N[C@@H](CO)C(=O)N[C@@H](CO)C(=O)N[C@H](C(=O)N[C@@H](CC(N)=O)C(=O)N[C@H](C(=O)NCC(=O)N[C@@H](CO)C(=O)N[C@@H](CCCCN)C(=O)N[C@H](C(=O)N[C@@H](Cc1ccc(O)cc1)C(N)=O)[C@@H](C)O)C(C)C)[C@@H](C)O
notes: also called compound 35
B3: N^ε1-[(4S)-4-carboxy-4-[[(4S)-4-carboxy-4-(19-carboxynonadecanoylamino)butanoyl]amino]butanoyl]-[Asp14,Arg17,Pro21,Pro26,Asp35]-h-amylin (peptide)
peptide: K([γGlu-γGlu-C20 diacid])CNTATCATQRLADFLRHSSPNFGAPLSSTNVGSDTY-NH2
modifications: disulfide 2-7; N-terminus assumed
SMILES: CC(C)C[C@H](NC(=O)[C@H](CCCNC(=N)N)NC(=O)[C@H](CCC(N)=O)NC(=O)[C@@H](NC(=O)[C@H](C)NC(=O)[C@@H]1CSSC[C@H](NC(=O)[C@@H](N)CCCCNC(=O)CC[C@H](NC(=O)CC[C@H](NC(=O)CCCCCCCCCCCCCCCCCCC(=O)O)C(=O)O)C(=O)O)C(=O)N[C@@H](CC(N)=O)C(=O)N[C@@H]([C@@H](C)O)C(=O)N[C@@H](C)C(=O)N[C@@H]([C@@H](C)O)C(=O)N1)[C@@H](C)O)C(=O)N[C@@H](C)C(=O)N[C@@H](CC(=O)O)C(=O)N[C@@H](Cc1ccccc1)C(=O)N[C@@H](CC(C)C)C(=O)N[C@@H](CCCNC(=N)N)C(=O)N[C@@H](Cc1c[nH]cn1)C(=O)N[C@@H](CO)C(=O)N[C@@H](CO)C(=O)N1CCC[C@H]1C(=O)N[C@@H](CC(N)=O)C(=O)N[C@@H](Cc1ccccc1)C(=O)NCC(=O)N[C@@H](C)C(=O)N1CCC[C@H]1C(=O)N[C@@H](CC(C)C)C(=O)N[C@@H](CO)C(=O)N[C@@H](CO)C(=O)N[C@H](C(=O)N[C@@H](CC(N)=O)C(=O)N[C@H](C(=O)NCC(=O)N[C@@H](CO)C(=O)N[C@@H](CC(=O)O)C(=O)N[C@H](C(=O)N[C@@H](Cc1ccc(O)cc1)C(N)=O)[C@@H](C)O)C(C)C)[C@@H](C)O
notes: also called compound 1
B4: N^ε1-[(4S)-4-carboxy-4-[[(4S)-4-carboxy-4-(19-carboxynonadecanoylamino)butanoyl]amino]butanoyl]-[Asp14,Arg17,Pro21,Pro27,Arg35]-h-amylin (peptide)
peptide: K([γGlu-γGlu-C20 diacid])CNTATCATQRLADFLRHSSPNFGAIPSSTNVGSRTY-NH2
modifications: disulfide 2-7; N-terminus assumed
SMILES: CC[C@H](C)[C@H](NC(=O)[C@H](C)NC(=O)CNC(=O)[C@H](Cc1ccccc1)NC(=O)[C@H](CC(N)=O)NC(=O)[C@@H]1CCCN1C(=O)[C@H](CO)NC(=O)[C@H](CO)NC(=O)[C@H](Cc1c[nH]cn1)NC(=O)[C@H](CCCNC(=N)N)NC(=O)[C@H](CC(C)C)NC(=O)[C@H](Cc1ccccc1)NC(=O)[C@H](CC(=O)O)NC(=O)[C@H](C)NC(=O)[C@H](CC(C)C)NC(=O)[C@H](CCCNC(=N)N)NC(=O)[C@H](CCC(N)=O)NC(=O)[C@@H](NC(=O)[C@H](C)NC(=O)[C@@H]1CSSC[C@H](NC(=O)[C@@H](N)CCCCNC(=O)CC[C@H](NC(=O)CC[C@H](NC(=O)CCCCCCCCCCCCCCCCCCC(=O)O)C(=O)O)C(=O)O)C(=O)N[C@@H](CC(N)=O)C(=O)N[C@@H]([C@@H](C)O)C(=O)N[C@@H](C)C(=O)N[C@@H]([C@@H](C)O)C(=O)N1)[C@@H](C)O)C(=O)N1CCC[C@H]1C(=O)N[C@@H](CO)C(=O)N[C@@H](CO)C(=O)N[C@H](C(=O)N[C@@H](CC(N)=O)C(=O)N[C@H](C(=O)NCC(=O)N[C@@H](CO)C(=O)N[C@@H](CCCNC(=N)N)C(=O)N[C@H](C(=O)N[C@@H](Cc1ccc(O)cc1)C(N)=O)[C@@H](C)O)C(C)C)[C@@H](C)O
notes: also called compound 52
B5: N^ε1-[(4S)-4-carboxy-4-[[(4S)-4-carboxy-4-(19-carboxynonadecanoylamino)butanoyl]amino]butanoyl]-[Asp14,Arg17,Pro21,Pro27,Asp35]-h-amylin (peptide)
peptide: K([γGlu-γGlu-C20 diacid])CNTATCATQRLADFLRHSSPNFGAIPSSTNVGSDTY-NH2
modifications: disulfide 2-7; N-terminus assumed
SMILES: CC[C@H](C)[C@H](NC(=O)[C@H](C)NC(=O)CNC(=O)[C@H](Cc1ccccc1)NC(=O)[C@H](CC(N)=O)NC(=O)[C@@H]1CCCN1C(=O)[C@H](CO)NC(=O)[C@H](CO)NC(=O)[C@H](Cc1c[nH]cn1)NC(=O)[C@H](CCCNC(=N)N)NC(=O)[C@H](CC(C)C)NC(=O)[C@H](Cc1ccccc1)NC(=O)[C@H](CC(=O)O)NC(=O)[C@H](C)NC(=O)[C@H](CC(C)C)NC(=O)[C@H](CCCNC(=N)N)NC(=O)[C@H](CCC(N)=O)NC(=O)[C@@H](NC(=O)[C@H](C)NC(=O)[C@@H]1CSSC[C@H](NC(=O)[C@@H](N)CCCCNC(=O)CC[C@H](NC(=O)CC[C@H](NC(=O)CCCCCCCCCCCCCCCCCCC(=O)O)C(=O)O)C(=O)O)C(=O)N[C@@H](CC(N)=O)C(=O)N[C@@H]([C@@H](C)O)C(=O)N[C@@H](C)C(=O)N[C@@H]([C@@H](C)O)C(=O)N1)[C@@H](C)O)C(=O)N1CCC[C@H]1C(=O)N[C@@H](CO)C(=O)N[C@@H](CO)C(=O)N[C@H](C(=O)N[C@@H](CC(N)=O)C(=O)N[C@H](C(=O)NCC(=O)N[C@@H](CO)C(=O)N[C@@H](CC(=O)O)C(=O)N[C@H](C(=O)N[C@@H](Cc1ccc(O)cc1)C(N)=O)[C@@H](C)O)C(C)C)[C@@H](C)O
notes: also called compound 2

The target of this experiment is T1, human calcitonin receptor (human, UniProt P30988 25-474).
T1 construct: whole, on cells; Used as cell membranes prepared from the transfected BHK cells (Assay VII), not as intact cells; also called hCTR; hCT
T1 sequence (looked up): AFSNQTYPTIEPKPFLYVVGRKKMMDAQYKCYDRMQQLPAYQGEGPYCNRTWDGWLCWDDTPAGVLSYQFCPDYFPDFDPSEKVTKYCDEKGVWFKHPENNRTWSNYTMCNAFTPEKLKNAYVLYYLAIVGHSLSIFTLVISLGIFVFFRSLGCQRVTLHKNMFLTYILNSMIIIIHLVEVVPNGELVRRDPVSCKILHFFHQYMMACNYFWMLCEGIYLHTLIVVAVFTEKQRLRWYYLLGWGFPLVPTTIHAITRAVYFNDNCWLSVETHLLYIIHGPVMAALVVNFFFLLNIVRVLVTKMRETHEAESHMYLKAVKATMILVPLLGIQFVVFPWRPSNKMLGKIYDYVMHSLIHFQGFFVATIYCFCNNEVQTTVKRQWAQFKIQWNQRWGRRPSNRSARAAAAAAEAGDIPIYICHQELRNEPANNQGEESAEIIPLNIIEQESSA
The experiment can be described thus: SPA competition against 125I-calcitonin, membranes with human calcitonin receptor (Assay VII). The protocol: Membranes were prepared in the following way; the cells were rinsed with PBS and incubated with Versene for approximately 5 min before harvesting. The cells were flushed with PBS and the cell-suspension was centrifuged for 5 min at 1000 rpm. Cells were homogenized (Ultrathurrax) in a buffer containing 20 mM Na-HEPES and 10 mM EDTA (pH 7.4) and centrifuged at 20.000 rpm for 15 min. The resulting pellet was resuspended, homogenized and centrifuged (20.000 rpm, 15 min) in a buffer containing 20 mM Na-HEPES and 0.1 mM EDTA (pH 7.4, buffer 2). The resulting pellet was resuspended in buffer 2 and protein concentration was measured (BCA protein Assay, Pierce). The homogenate was kept cold during the whole procedure. The membranes were kept at −80° C. until use. Assay was performed in a 384 well Optiplate (PerkinElmer) in a total volume of 40 ul. Membranes were mixed with SPA beads. Final concentration of membranes 35 ng/μL final and Final concentration of SPA beads was 0.05 mg/well. Test-compounds were dissolved in DMSO and further diluted in assay buffer (50 mM Hepes, pH 7.4, 1 mM CaCl2, 5 mM MgCl₂, 0.1% OA and 0.02% Tween20). […] The final mixture was incubated for 120 min with shaking at 400 rpm at 25° C. prior to centrifugation (1500 rpm, 10 min). Samples were analyzed on TopCounter™ (Packard). The […] was calculated using (one site binding competition analysis) GraphPad Prism5 as a measure of receptor affinity.
As for B1, the IC50 was determined as 34.5 nM.

Take B2: the concentration for half-maximal inhibition (IC50) turned out to be 48.8 nM.

For B3, the concentration for half-maximal inhibition (IC50) turned out to be 32.5 nM.

Take B4: the IC50 came out at 56.9 nM.

On to B5, for which the IC50 came out at 19.5 nM.
